Laboratory results taken from patent US20130324409A1 (University of California, published 2013).
One block for each binder: values may come before it.

Key:
[1] = target: T1, PYL4 6×His-tagged protein
T1 chain: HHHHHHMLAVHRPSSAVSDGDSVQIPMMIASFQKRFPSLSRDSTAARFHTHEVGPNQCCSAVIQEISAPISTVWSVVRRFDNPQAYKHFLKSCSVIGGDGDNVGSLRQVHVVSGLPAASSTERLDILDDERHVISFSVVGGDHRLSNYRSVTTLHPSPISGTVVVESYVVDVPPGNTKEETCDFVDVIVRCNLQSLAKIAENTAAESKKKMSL

[2] = target: T2, GST-HAB1 (Arabidopsis, UniProt Q9CAJ0 23-511); experiment: cell-based or functional assay
T2 sequence (looked up): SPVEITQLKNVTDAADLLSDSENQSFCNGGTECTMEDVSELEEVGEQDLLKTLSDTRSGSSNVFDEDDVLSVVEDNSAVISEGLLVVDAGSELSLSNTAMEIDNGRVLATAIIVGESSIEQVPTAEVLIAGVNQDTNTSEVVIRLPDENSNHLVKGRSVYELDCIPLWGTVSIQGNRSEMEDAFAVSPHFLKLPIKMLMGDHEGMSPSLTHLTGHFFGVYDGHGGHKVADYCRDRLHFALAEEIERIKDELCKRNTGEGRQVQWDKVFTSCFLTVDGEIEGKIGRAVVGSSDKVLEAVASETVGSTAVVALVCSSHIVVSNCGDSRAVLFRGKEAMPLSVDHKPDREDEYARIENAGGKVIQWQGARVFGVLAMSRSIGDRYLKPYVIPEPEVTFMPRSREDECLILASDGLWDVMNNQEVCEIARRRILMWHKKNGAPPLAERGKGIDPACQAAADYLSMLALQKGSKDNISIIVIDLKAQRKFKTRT

[3] = target: T3, ABI1 (yeast two-hybrid construct) (UniProt P49597 1-434); experiment: yeast two-hybrid
T3 construct: also called wild type ABI1; cDNA C104649
T3 sequence (looked up): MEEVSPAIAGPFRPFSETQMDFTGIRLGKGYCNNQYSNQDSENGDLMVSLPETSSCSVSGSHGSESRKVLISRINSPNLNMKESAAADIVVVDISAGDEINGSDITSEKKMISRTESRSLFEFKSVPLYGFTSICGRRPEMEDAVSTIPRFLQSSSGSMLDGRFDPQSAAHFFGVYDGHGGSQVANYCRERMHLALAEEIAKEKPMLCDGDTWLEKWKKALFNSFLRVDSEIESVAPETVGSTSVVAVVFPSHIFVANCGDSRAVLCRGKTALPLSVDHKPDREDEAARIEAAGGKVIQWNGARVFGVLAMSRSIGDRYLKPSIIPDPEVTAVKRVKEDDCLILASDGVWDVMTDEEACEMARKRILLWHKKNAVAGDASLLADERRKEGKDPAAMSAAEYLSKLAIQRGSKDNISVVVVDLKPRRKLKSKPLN

[4] = target: T4, ABI2 (yeast two-hybrid construct) (UniProt O04719 1-423); experiment: yeast two-hybrid
T4 construct: also called wild type ABI2; cDNA U24491
T4 sequence (looked up): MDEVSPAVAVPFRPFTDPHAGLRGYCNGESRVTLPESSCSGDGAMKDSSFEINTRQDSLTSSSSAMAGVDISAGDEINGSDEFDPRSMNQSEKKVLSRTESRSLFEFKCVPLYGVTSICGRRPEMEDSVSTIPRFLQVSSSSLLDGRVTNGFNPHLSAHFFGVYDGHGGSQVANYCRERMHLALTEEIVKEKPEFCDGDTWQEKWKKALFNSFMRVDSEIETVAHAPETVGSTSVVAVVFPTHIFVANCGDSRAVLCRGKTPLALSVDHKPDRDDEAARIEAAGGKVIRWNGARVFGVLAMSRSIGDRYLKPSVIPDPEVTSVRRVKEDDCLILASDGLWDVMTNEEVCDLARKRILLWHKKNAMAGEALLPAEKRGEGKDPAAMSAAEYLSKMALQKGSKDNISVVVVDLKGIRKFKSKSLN

[5] = target: T5, ABI2^G168D encoded by abi2-1 (yeast two-hybrid construct) (UniProt O04719 1-423); experiment: yeast two-hybrid
T5 construct: ABA insensitive mutant protein; also called mutant protein encoded by abi2-1
T5 sequence (looked up): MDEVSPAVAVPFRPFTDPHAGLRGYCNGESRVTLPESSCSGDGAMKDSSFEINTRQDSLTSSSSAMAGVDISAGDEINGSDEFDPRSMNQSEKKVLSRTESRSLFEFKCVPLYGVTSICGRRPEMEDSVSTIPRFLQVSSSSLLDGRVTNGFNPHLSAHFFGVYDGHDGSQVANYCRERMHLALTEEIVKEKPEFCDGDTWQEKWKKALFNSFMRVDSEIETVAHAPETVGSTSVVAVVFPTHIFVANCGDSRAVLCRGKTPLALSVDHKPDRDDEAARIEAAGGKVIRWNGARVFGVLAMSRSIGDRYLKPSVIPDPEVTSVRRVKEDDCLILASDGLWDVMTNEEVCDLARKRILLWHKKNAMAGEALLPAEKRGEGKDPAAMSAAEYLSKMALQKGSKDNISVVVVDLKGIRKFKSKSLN

[6] = target: T6, GST-ABI1 (UniProt P49597 1-434); experiment: His-tag pull-down, E. coli lysate holding the PP2C
T6 construct: Used as cleared E. coli lysate in the pull-downs; not shown: glutathione S-transferase (GST)
T6 sequence (looked up): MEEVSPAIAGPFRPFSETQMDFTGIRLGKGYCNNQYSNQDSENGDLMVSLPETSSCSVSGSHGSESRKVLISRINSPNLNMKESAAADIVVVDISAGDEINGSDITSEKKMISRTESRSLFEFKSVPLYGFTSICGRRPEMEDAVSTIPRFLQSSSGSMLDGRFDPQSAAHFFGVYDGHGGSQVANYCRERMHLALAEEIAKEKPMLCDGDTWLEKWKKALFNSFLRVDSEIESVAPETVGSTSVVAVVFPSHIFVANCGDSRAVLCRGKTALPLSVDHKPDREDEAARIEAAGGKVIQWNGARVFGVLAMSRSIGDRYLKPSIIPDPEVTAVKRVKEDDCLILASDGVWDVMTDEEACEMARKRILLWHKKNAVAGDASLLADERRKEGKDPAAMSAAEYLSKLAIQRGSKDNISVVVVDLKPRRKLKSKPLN
Method: (§1) To explore the functional implications of the PYR1-PP2C interaction, we examined if an ABA response could be reconstituted in vitro. Recombinant GST-HAB1, GST-ABI1 and GST-ABI2 were expressed in E. coli and tested for ligand-dependent interactions with 6×His-PYR1 in pull-down assays. Purified 6×His-PYR1 and GST-HAB1 (20 and 100 μg respectively, 8 μM PYR1 final concentration), were combined in 100 μl TBS containing 10 μM (+)-ABA or 1% DMSO for negative control. The reaction was incubated for 90 minutes at RT and 5 μl of PrepEase (USB) His-tagged protein purification resin was added. The resin and reaction mixture was incubated 30 min at RT with gentle shaking at 5 min intervals. The resin was washed five times with TBS containing 10 μM (+)-ABA. After the final wash, the bound protein was eluted in 20 μl SDS-PAGE buffer, boiled for 5 minutes and centrifuged. 5 μl of eluate was analyzed on SDS-PAGE. For pull-downs with ABI1 and ABI2, crude lysates were used in a similar method, except purified PP2C was replaced with cleared E. coli lysates. The amount of lysate added was determined by SDS-page analysis to yield ˜100 μg PP2C, such that the same stoichiometry was used as in assays using purified proteins.

[7] = target: T7, GST-ABI2 (UniProt O04719 1-423); experiment: His-tag pull-down, E. coli lysate holding the PP2C
T7 construct: Used as cleared E. coli lysate in the pull-downs; not shown: glutathione S-transferase (GST)
T7 sequence (looked up): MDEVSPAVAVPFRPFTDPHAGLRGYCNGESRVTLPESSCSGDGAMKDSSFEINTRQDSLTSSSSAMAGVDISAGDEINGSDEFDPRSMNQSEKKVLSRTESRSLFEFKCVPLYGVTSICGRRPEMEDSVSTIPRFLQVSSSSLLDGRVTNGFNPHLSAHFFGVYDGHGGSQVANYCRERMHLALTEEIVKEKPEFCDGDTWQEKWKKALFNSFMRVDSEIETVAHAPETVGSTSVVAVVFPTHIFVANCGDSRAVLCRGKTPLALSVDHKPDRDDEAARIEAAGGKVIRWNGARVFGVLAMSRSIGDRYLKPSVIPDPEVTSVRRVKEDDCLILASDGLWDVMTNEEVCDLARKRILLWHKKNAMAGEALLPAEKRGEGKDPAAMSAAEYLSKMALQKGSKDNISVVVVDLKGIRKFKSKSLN
Method: as §1

B1: GST-HAB1 (protein)
chain: SPVEITQLKNVTDAADLLSDSENQSFCNGGTECTMEDVSELEEVGEQDLLKTLSDTRSGSSNVFDEDDVLSVVEDNSAVISEGLLVVDAGSELSLSNTAMEIDNGRVLATAIIVGESSIEQVPTAEVLIAGVNQDTNTSEVVIRLPDENSNHLVKGRSVYELDCIPLWGTVSIQGNRSEMEDAFAVSPHFLKLPIKMLMGDHEGMSPSLTHLTGHFFGVYDGHGGHKVADYCRDRLHFALAEEIERIKDELCKRNTGEGRQVQWDKVFTSCFLTVDGEIEGKIGRAVVGSSDKVLEAVASETVGSTAVVALVCSSHIVVSNCGDSRAVLFRGKEAMPLSVDHKPDREDEYARIENAGGKVIQWQGARVFGVLAMSRSIGDRYLKPYVIPEPEVTFMPRSREDECLILASDGLWDVMNNQEVCEIARRRILMWHKKNGAPPLAERGKGIDPACQAAADYLSMLALQKGSKDNISIIVIDLKAQRKFKTRT
HAB1 phosphatase activity (substrate pNPP) [1]: (+)-ABA inhibits HAB1 phosphatase activity in the presence of PYL4

B2: 6×His-PYR1 (receptor, not shown: small tags and cut ends)
chain: MPSELTPEERSELKNSIAEFHTYQLDPGSCSSLHAQRIHAPPELVWSIVRRFDKPQTYKHFIKSCSVEQNFEMRVGCTRDVIVISGLPANTSTERLDILDDERRVTGFSIIGGEHRLTNYKSVTTVHRFEKENRIWTVVLESYVVDMPEGNSEDDTRMFADTVVKLNLQKLATVAEAMARNSGDGSGSQVT
IC50 of (+)-ABA for inhibition of HAB1 phosphatase activity (substrate pNPP) in the presence of PYR1 [2]: 0.18 µM

The remaining lines, values ahead:

binding result [3]: binds
binding result [4]: binds
binding result [5]: no binding
B3: BD-PYR1 fusion protein (receptor, not shown: large carriers; small tags and cut ends)
chain: MPSELTPEERSELKNSIAEFHTYQLDPGSCSSLHAQRIHAPPELVWSIVRRFDKPQTYKHFIKSCSVEQNFEMRVGCTRDVIVISGLPANTSTERLDILDDERRVTGFSIIGGEHRLTNYKSVTTVHRFEKENRIWTVVLESYVVDMPEGNSEDDTRMFADTVVKLNLQKLATVAEAMARNSGDGSGSQVT
notes: Pyr1 open reading frame cloned in frame into pBD-GAL4 Cam, expressed in yeast Y190; also called PYR1 Y2H bait construct; PYRABACTIN … 1

binding result [6]: no binding (tested: 10 µM (+)-ABA)
binding result [7]: no binding (tested: 10 µM (+)-ABA)
B4: 6×His-PYR1^P88S (receptor)
chain: MPSELTPEERSELKNSIAEFHTYQLDPGSCSSLHAQRIHAPPELVWSIVRRFDKPQTYKHFIKSCSVEQNFEMRVGCTRDVIVISGLSANTSTERLDILDDERRVTGFSIIGGEHRLTNYKSVTTVHRFEKENRIWTVVLESYVVDMPEGNSEDDTRMFADTVVKLNLQKLATVAEAMARNSGDGSGSQVT
notes: also called pyr1-3 mutant protein; not shown: 6×His tag and vector residues of pET28
